Results reported in IntAct's records for PubMed 16858409.

B1: Mitochondrial antiviral-signaling protein (Mus musculus), Q8VCF0 (parent)
chain: MTFAEDKTYKYIRDNHSKFCCVDVLEILPYLSCLTASDQDRLRASYRQIGNRDTLWGLFNNLQRRPGWVEVFIRALQICELPGLADQVTRVYQSYLPPGTSLRSLEPLQLPDFPAAVSGPSAFAPGHNIPDHGLRETPSCPKPVQDTQPPESPVENSEQLLQTNSGAVARMSGGSLIPSPNQQALSPQPSREHQEQEPELGGAHAANVASVPIATYGPVSPTVSFQPLPRTALRTNLLSGVTVSALSADTSLSSSSTGSAFAKGAGDQAKAATCFSTTLTNSVTTSSVPSPRLVPVKTMSSKLPLSSKSTAAMTSTVLTNTAPSKLPSNSVYAGTVPSRVPASVAKAPANTIPPERNSKQAKETPEGPATKVTTGGNQTGPNSSIRSLHSGPEMSKPGVLVSQLDEPFSACSVDLAISPSSSLVSEPNHGPEENEYSSFRIQVDESPSADLLGSPEPLATQQPQEEEEHCASSMPWAKWLGATSALLAVFLAVMLYRSRRLAQ
partner: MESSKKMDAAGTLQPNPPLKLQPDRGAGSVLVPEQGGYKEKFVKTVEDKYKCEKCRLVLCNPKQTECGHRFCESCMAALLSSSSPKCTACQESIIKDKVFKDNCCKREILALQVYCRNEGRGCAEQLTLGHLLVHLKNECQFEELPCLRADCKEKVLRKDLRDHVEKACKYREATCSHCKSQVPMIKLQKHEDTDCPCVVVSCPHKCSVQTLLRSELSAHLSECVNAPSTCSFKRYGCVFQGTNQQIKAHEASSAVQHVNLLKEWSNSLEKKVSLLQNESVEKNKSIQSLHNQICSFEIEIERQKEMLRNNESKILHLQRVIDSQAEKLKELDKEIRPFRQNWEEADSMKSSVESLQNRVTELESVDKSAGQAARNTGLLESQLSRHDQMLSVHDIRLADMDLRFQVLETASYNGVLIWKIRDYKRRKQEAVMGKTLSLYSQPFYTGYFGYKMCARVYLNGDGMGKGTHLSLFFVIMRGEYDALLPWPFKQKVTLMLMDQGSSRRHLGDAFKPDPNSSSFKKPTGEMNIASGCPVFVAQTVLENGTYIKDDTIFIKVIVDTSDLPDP
B2: TNF receptor-associated factor 3 (Mus musculus), Q60803 (parent)
chain: B1 partner
partner: B1 chain

Variants of: B1
Conditions: with traf3_mouse Traf3, Q60803

| Variant | effect of a mutation on the interaction |
| --- | --- |
| MTFAEDKTYKYIRDNHSKFCCVDVLEILPYLSCLTASDQDRLRASYRQIGNRDTLWGLFNNLQRRPGWVEVFIRALQICELPGLADQVTRVYQSYLPPGTSLRSLEPLQLPDFPAAVSGPSAFAPGHNIPDHGLRETPSCPKPVQDIQPPESPVENSEQLLQTNSGAVARMSGGSLIPSPNQQALSPQPSREHQEQEPELGGAHAANVASVPIATYGPVSPTVSFQPLPRTALRTNLLSGVTVSALSADTSLSSSSTGSAFAKGAGDQAKAATCFSTTLTNSVTTSSVPSPRLVPVKTMSSKLPLSSKSTAAMTSTVLTNTAPSKLPSNSVYAGTVPSRVPASVAKAPANTIPPERNSKQAKETPEGPATKVTTGGNQTGPNSSIRSLHSGPEMSKPGVLVSQLDEPFSACSVDLAISPSSSLVSEPNHGPEENEYSSFRIQVDESPSADLLGSPEPLATQQPQEEEEHCASSMPWAKWLGATSALLAVFLAVMLYRSRRLAQ [T147I] | disrupting interaction |

Variants of: B2
Conditions: with mavs_mouse Mavs

| Variant | effect of a mutation on the interaction |
| --- | --- |
| MESSKKMDAAGTLQPNPPLKLQPDRGAGSVLVPEQGGYKEKFVKTVEDKYKCEKCRLVLCNPKQTECGHRFCESCMAALLSSSSPKCTACQESIIKDKVFKDNCCKREILALQVYCRNEGRGCAEQLTLGHLLVHLKNECQFEELPCLRADCKEKVLRKDLRDHVEKACKYREATCSHCKSQVPMIKLQKHEDTDCPCVVVSCPHKCSVQTLLRSELSAHLSECVNAPSTCSFKRYGCVFQGTNQQIKAHEASSAVQHVNLLKEWSNSLEKKVSLLQNESVEKNKSIQSLHNQICSFEIEIERQKEMLRNNESKILHLQRVIDSQAEKLKELDKEIRPFRQNWEEADSMKSSVESLQNRVTELESVDKSAGQAARNTGLLESQLSRHDQMLSVHDIRLADMDLRFQVLETASYNGVLIWKIRDYKRRKQEAVMGKTLSLASQPFYTGYFGYKMCARVYLNGDGMGKGTHLSLFFVIMRGEYDALLPWPFKQKVTLMLMDQGSSRRHLGDAFKPDPNSSSFKKPTGEMNIASGCPVFVAQTVLENGTYIKDDTIFIKVIVDTSDLPDP [Y440A] | disrupting interaction |
| MESSKKMDAAGTLQPNPPLKLQPDRGAGSVLVPEQGGYKEKFVKTVEDKYKCEKCRLVLCNPKQTECGHRFCESCMAALLSSSSPKCTACQESIIKDKVFKDNCCKREILALQVYCRNEGRGCAEQLTLGHLLVHLKNECQFEELPCLRADCKEKVLRKDLRDHVEKACKYREATCSHCKSQVPMIKLQKHEDTDCPCVVVSCPHKCSVQTLLRSELSAHLSECVNAPSTCSFKRYGCVFQGTNQQIKAHEASSAVQHVNLLKEWSNSLEKKVSLLQNESVEKNKSIQSLHNQICSFEIEIERQKEMLRNNESKILHLQRVIDSQAEKLKELDKEIRPFRQNWEEADSMKSSVESLQNRVTELESVDKSAGQAARNTGLLESQLSRHDQMLSVHDIRLADMDLRFQVLETASYNGVLIWKIRDYKRRKQEAVMGKTLSLYSAPFYTGYFGYKMCARVYLNGDGMGKGTHLSLFFVIMRGEYDALLPWPFKQKVTLMLMDQGSSRRHLGDAFKPDPNSSSFKKPTGEMNIASGCPVFVAQTVLENGTYIKDDTIFIKVIVDTSDLPDP [Q442A] | disrupting interaction |
